The chains are these.
B1: GST-cJun(1-79), GST fused to c-Jun AA 1-79 (other)
chain: MTAKMETTFYDDALNASFLPSESGPYGYSNPKILKQSMTLNLADPVGSLKPHLRAKNSDLLTSPDVGLLKLASPELERL
notes: also called GST fusion protein containing AA 1-79 of c-Jun; not shown: glutathione-S-transferase (GST) carrier encoded by pGEX3X (Pharmacia)
B2: GSTcJun(33-223), GST fused to c-Jun AA 33-223 (other)
chain: ILKQSMTLNLADPVGSLKPHLRAKNSDLLTSPDVGLLKLASPELERLIIQSSNGHITTTPTPTQFLCPKNVTDEQEGFAEGFVRALAELHSQNTLPSVTSAAQPVNGAGMVAPAVASVAGGSGSGGFSASLHSEPPVYANLSNFNPGALSSGGGAPSYGAAGLAFPAQPQQQQQPPHHLPQQMPVQHPRLQ
notes: also called removal of AA 1-32; not shown: GST carrier (pGEX3X, Pharmacia) and the vector junction residues
B3: epitope-tagged JNK1 (Flag epitope Asp-Tyr-Lys-Asp-Asp-Asp-Asp-Lys inserted between codons 1 and 2), expressed in COS cells (enzyme)
chain: MDYKDDDDKSRSKRDNNFYSVEIGDSTFTVLKRYQNLKPIGSGAQGIVCAAYDAILERNVAIKKLSRPFQNQTHAKRAYRELVLMKCVNHKNIIGLLNVFTPQKSLEEFQDVYIVMELMDANLCQVIQMELDHERMSYLLYQMLCGIKHLHSAGIIHRDLKPSNIVVKSDCTLKILDFGLARTAGTSFMMTPYVVTRYYRAPEVILGMGYKENVDLWSVGCIMGEMVCHKILFPGRDYIDQWNKVIEQLGTPCPEFMKKLQPTVRTYVENRPKYAGYSFEKLFPDVLFPADSEHNKLKASQARDLLSKMLVIDASKRISVDEALQHPYINVWYDPSEAEAPPPKIPDKQLDEREHTIEEWKELIYKEVMDLEERTKNGVIRGQPSPLAQVQQ
notes: Tag inserted between codons 1 and 2 of the JNK1 cDNA in pCMV5; also called immunopurified JNK1
B4: GST-cJun(43-223), GST fused to c-Jun AA 43-223 (other)
chain: ADPVGSLKPHLRAKNSDLLTSPDVGLLKLASPELERLIIQSSNGHITTTPTPTQFLCPKNVTDEQEGFAEGFVRALAELHSQNTLPSVTSAAQPVNGAGMVAPAVASVAGGSGSGGFSASLHSEPPVYANLSNFNPGALSSGGGAPSYGAAGLAFPAQPQQQQQPPHHLPQQMPVQHPRLQ
notes: also called removal of AA 1-42; deletion of residues 1-42; not shown: GST carrier (pGEX3X, Pharmacia) and the vector junction residues
B5: c-Jun N-terminal protein kinase (JNK), 46 kD form, endogenous kinase from cell extracts (enzyme)
chain: MSRSKRDNNFYSVEIGDSTFTVLKRYQNLKPIGSGAQGIVCAAYDAILERNVAIKKLSRPFQNQTHAKRAYRELVLMKCVNHKNIIGLLNVFTPQKSLEEFQDVYIVMELMDANLCQVIQMELDHERMSYLLYQMLCGIKHLHSAGIIHRDLKPSNIVVKSDCTLKILDFGLARTAGTSFMMTPYVVTRYYRAPEVILGMGYKENVDLWSVGCIMGEMVCHKILFPGRDYIDQWNKVIEQLGTPCPEFMKKLQPTVRTYVENRPKYAGYSFEKLFPDVLFPADSEHNKLKASQARDLLSKMLVIDASKRISVDEALQHPYINVWYDPSEAEAPPPKIPDKQLDEREHTIEEWKELIYKEVMDLEERTKNGVIRGQPSPLAQVQQ

The target of experiment [1] is B3. In words: COS cell lysates on GST-cJun(1-79) immobilized on GSH-agarose beads, Western blot with M2 antibody. A general note: In western blotting, separated proteins are transferred to a membrane and probed.
Protocol: COS cell extracts (250 µg) were incubated with 20 µg GST or GST-cJun immobilized on 10 µl GSH-agarose at 4° C. for 5 hours.
Mock-transfected COS cells were used in control experiments (lanes 1 & 2). The cells were either untreated (lanes 1 & 3) or irradiated with 40 J/m^2 UV-C (lanes 2, 4, & 5). Cell lysates were prepared and incubated with GST-cJun(1-79) (lanes 1–4) or GST (lane 5) immobilized on GSH-agarose beads.
The target of experiment [2] is B3. In words: immunopurified JNK1 on GST-Jun fusion proteins bound to GSH-agarose, solid-phase kinase assay.
Protocol: (§1) Clarified cell extracts were incubated with GST fusion proteins immobilized on GSH-agarose beads. […] The reaction was terminated after 10 mins at 30° C. and the products were resolved by SDS-PAGE. The incorporation of [^32P]phosphate was visualized by autoradiography and quantitated with a phosphorimager and ImageQuant software (Molecular Dynamics Inc., Sunnyvale, Calif.).
(§2) Mock-transfected COS cells were used as a control. After 1 hour, the cells were lysed and subjected to immunoprecipitation with the M2 monoclonal antibody. […] The phosphorylated proteins were resolved by SDS-PAGE and detected by autoradiography.
In experiment [3] the target is T1, GSTcJun(wt), glutathione-S-transferase fused to c-Jun AA 1-223 (human, UniProt P08515 1-218 = GST).
T1 construct: Expressed in E. coli, held on GSH-agarose beads; also called human GSTcJun
Described as above.
Protocol: as §1, §2

For experiment [4], the target named is B5. In words: GSTcJun deletion mutants on GSH-agarose, UV-irradiated HeLa extract; solid-phase kinase assay and eluted-kinase assay.
Experiment [5] deals with GAL4-cJun(1-223), GAL4 DNA binding domain fused to c-Jun AA 1-223 (yeast; human, UniProt P04386 1-147). The experiment in a line: cell-based or functional assay.

Consider B1, for which the binding result in experiment [1] is recorded as “binds”.

Regarding B2, in experiment [2], the binding result was “binds”.

B3: in experiment [3], the binding result is given as “binds”.

In the case of B4, the binding result in experiment [4] and in experiment [2] was “no binding” in each case.

Consider B5, for which, in experiment [5], the “Ha-Ras responsiveness, CAT activity of 5xGAL4-Elb-CAT reporter in F9 cells” value turned out to be 19 fold induction and the “UV responsiveness, CAT activity of 5xGAL4-Elb-CAT reporter in F9 cells” value stood at 7.5 fold.

The record behind these values is patent US6863888 (University of California, dated 2005).
